Experimental data from patent publication US7179646B2, “Gene expression using T cell factor responsive element” (Innovata PLC, priority 2000, dated 2007).

Key:
HepG2 cells = experiment: Transient transfection luciferase reporter assay in HepG2; format: cell-based, human
Description: (§1) HepG2, SW480 and HeLa were seeded the day before transfection at densities of 2.5×10^5, 1.5×10^5 and 6.0×10^4 cells per 6-well respectively. The next day, a mixture of CL22 peptide ([…] (SEQ ID NO:15) (described in International Patent Application WO 98/35984)) and plasmid DNA (2:1 ratio, μg:μg) was prepared in a final volume of 100 μl in HBS (10 mM Hepes pH 7.4, 150 mM NaCl; Sigma) and incubated at RT for 30–45 min before addition of 0.9 ml of “RAC” solution (0.1% human albumin (BPL, UK), 120 μM chloroquine (Sigma) in RPMI medium (Sigma). The transfection solution was then added to cells after washing them once with PBS and incubated with the cells for 4–5 hours before replacement with 2 ml of fresh complete medium. After two days, cells were washed once with PBS and then incubated for 10 min at RT in 200 μl lysis buffer (10 mM sodium phosphate pH 7.8, 8 mM MgCl2, 1 mM EDTA pH 8.0, 1% Triton X-100 and 15% glycerol). After centrifugation, an aliquot of the supernatant was assayed for luciferase activity with luciferase assay buffer (0.1 mM luciferin, 0.44 mM ATP in lysis buffer) using a luminometer (Lumat LB 9501, Berthold, Germany). Activity was normalised using the protein content of each sample (BCA, Pierce).

[1] = tested on: freshly excised colorectal cancer tissue and attached liver tissue; experiment: Ex vivo transduction of freshly excised colorectal tumour samples, X-gal staining; set-up: species or system human
Description: Freshly excised tumour tissue was extensively washed (at least 10 minutes duration) under aseptic conditions with 20 ml of Earl's MEM containing 10% FCS, 150 μg/ml penicillin, 250 μg/ml streptomycin, 10 μg/ml tetracycline, 100 μg/ml amikacin, 150 µg/ml chloramphenicol and 100 μg/ml gentamycin and stored at 4° C. overnight in medium containing 10% FCS. After removal of fat and grossly and suspected necrotic tissue, 2–3 mm^3 samples were prepared and placed individually into wells of a 96-well plate. Samples (in quadruplicate) were incubated in 150 μl of serum-free medium containing, 1.0×10^10 virus particles or in medium alone for 4 h in a CO2 incubator. The medium was then replaced with EMEM containing 10% FCS and the samples incubated for a further 44 h to allow gene expression to proceed. β-galactosidase expression was visualised after fixation of the tumour samples in 2% paraformaldehyde/PBS for 2 h at 4° C. and washing with PBS by overnight incubation in X-gal staining solution at 37° C.

[2] = tested on: primary human hepatocytes, dermal fibroblasts and endothelial cells; experiment: Beta-galactosidase expression in infected cultured primary human cells; format: cell-based; details: 48 h after infection
Description: Primary human dermal fibroblasts were isolated from punch biopsy samples from healthy volunteers and maintained as above. HUVEC cells were obtained from Promocell (Heidelberg, Germany) and maintained in Endothelial Growth Medium plus Supplement Mix (Promocell). Primary hepatocytes were maintained in Williams medium with added antibiotics, glutamine, insulin and hydrocortisone.
After washing cells with PBS, cells were fixed in 0.05% glutaraldehyde in PBS for 10 min at RT. Following further washing in PBS, cells were incubated cells the following solution and incubated at 37° C. X-gal solution: 400 μl 500 mM K4Fe(CN)6, 400 μl 500 mM K3Fe(CN)6, 100 μl 2 mM MgCl2, 250 μl 40 mg/ml X-Gal in DMF and 8.85 ml PBS.
(§2) Expression of β-galactosidase was measured for quantitative graphical presentation by means of the Galacto-Light system (Tropix Inc, Applied Biosystems, Foster City, Calif., U.S.A.)

293 and PerC6 cells = experiment: LacZ expression in adenovirus helper cell lines; format: cell-based, human
Description: as §2

HeLa cells = experiment: Transient transfection luciferase reporter assay in HeLa; format: cell-based, human
Description: as §1

SW480 cells = experiment: Transient transfection luciferase reporter assay in SW480; format: cell-based, human
Description: as §1

B1: 5merTcf-SV40: Artificial promoter of 5 active Tcf sites upstream of the basal SV40 promoter; renamed CTP1 (nucleic acid)
antisense: TTGAGATGCAGATCGCAGATCTGATAAAGGTGCATTTAGAGATCAAAGGTAGGACTCTTGATCAAAGGACTGAATTCCTTGATCAAAGGTGCATTTAGAGATCAAAGGTAGGACTCTTTGATCAAAGGGACTAGTAAGCTTGCTAGCACGCGTAAGAGCTCGGTACC
For B1, the “activity relative to CMV enhancer/promoter” value (HepG2 cells) was “even more active than CMV”, the induction ratio (HepG2 cells; relative to SV40 promoter set as 1) was 18 and the “colorectal metastases permissive for high-level expression” value ([1]; 5 metastases examined) was “all 5 colorectal metastases examined were permissive”. The “primaries weakly or non-permissive for promoter activity” value ([1]; of 10 primaries) was 3, the beta-galactosidase expression [2] was “very low levels of beta-galactosidase expression” and the “LacZ expression compared to CMV promoter” value (293 and PerC6 cells; 293 and PerC6, MOI 100, 30 h post-infection) was “significantly lower than that driven by the CMV promoter”. The “fold more active in PerC6 than in 293 cells” value (293 and PerC6 cells; PerC6 vs 293) was “approximately 3 fold”, the “luciferase reporter activity in HeLa” value (HeLa cells; Example 6) was “shows a background activity in HeLa cells” and the “luciferase activity compared to SV40 promoter alone” value (HeLa cells; beta-catenin not deregulated) was “not more active than the SV40 promoter alone”. The “activity relative to CMV enhancer/promoter” value (SW480 cells; SW480) was “about 80%”, the “luciferase reporter activity in SW480” value (SW480 cells; SW480, Example 6) was “highly active in SW480, here comparable to CMV” and the induction ratio (SW480 cells; SW480, relative to SV40 promoter set as 1) was 44.2. The “inducibility in SW480 compared to HeLa” value (SW480 cells; SW480 vs HeLa) was 30–60 fold.

B2: TcfC-E1BTATA: Luciferase reporter with TcfC arrangement of 5 Tcf sites and E1BTATA box (nucleic acid)
antisense: TACCAACAGTACCGGAATGCCAAGCTAGCTTTTTAGCTTCCTTAGCTCCTGAAAATCTCGCCAAGCTGATGAATTCGAGCTGGCGCATTATATACCCTCTGATAAAGGTGCATTTAGAGATCAAAGGTATGATCAAAGGACTTGATCAAAGGTGAGATCAAAGGTATTGATCAAAGGACTAGAGCTTACTTAGATCGCAGATCTCGAGCCCGGGCTAGCACGCGTAAGAGCTCGGTACCTATCG
B2 was tested, and the “level of reporter gene expression among Tcf-E1BTATA arrangements” value (SW480 cells; SW480, E1BTATA combinations) was “highest level of reporter gene expression”.
